Results on 2 substances are retold here after paper doi:10.1101/2023.06.24.546380.

The target of test [1] is intracellular domain of the tight junction receptor JAM-A (UniProt Q9Y624).
The target of test [2] is Zonula occludens scaffold protein ZO1 (UniProt Q07157). The test can be described thus: partitioning of actin into ZO1 surface condensates on supported lipid bilayers.
UniProt Q07157, sequence (Q07157 whole entry): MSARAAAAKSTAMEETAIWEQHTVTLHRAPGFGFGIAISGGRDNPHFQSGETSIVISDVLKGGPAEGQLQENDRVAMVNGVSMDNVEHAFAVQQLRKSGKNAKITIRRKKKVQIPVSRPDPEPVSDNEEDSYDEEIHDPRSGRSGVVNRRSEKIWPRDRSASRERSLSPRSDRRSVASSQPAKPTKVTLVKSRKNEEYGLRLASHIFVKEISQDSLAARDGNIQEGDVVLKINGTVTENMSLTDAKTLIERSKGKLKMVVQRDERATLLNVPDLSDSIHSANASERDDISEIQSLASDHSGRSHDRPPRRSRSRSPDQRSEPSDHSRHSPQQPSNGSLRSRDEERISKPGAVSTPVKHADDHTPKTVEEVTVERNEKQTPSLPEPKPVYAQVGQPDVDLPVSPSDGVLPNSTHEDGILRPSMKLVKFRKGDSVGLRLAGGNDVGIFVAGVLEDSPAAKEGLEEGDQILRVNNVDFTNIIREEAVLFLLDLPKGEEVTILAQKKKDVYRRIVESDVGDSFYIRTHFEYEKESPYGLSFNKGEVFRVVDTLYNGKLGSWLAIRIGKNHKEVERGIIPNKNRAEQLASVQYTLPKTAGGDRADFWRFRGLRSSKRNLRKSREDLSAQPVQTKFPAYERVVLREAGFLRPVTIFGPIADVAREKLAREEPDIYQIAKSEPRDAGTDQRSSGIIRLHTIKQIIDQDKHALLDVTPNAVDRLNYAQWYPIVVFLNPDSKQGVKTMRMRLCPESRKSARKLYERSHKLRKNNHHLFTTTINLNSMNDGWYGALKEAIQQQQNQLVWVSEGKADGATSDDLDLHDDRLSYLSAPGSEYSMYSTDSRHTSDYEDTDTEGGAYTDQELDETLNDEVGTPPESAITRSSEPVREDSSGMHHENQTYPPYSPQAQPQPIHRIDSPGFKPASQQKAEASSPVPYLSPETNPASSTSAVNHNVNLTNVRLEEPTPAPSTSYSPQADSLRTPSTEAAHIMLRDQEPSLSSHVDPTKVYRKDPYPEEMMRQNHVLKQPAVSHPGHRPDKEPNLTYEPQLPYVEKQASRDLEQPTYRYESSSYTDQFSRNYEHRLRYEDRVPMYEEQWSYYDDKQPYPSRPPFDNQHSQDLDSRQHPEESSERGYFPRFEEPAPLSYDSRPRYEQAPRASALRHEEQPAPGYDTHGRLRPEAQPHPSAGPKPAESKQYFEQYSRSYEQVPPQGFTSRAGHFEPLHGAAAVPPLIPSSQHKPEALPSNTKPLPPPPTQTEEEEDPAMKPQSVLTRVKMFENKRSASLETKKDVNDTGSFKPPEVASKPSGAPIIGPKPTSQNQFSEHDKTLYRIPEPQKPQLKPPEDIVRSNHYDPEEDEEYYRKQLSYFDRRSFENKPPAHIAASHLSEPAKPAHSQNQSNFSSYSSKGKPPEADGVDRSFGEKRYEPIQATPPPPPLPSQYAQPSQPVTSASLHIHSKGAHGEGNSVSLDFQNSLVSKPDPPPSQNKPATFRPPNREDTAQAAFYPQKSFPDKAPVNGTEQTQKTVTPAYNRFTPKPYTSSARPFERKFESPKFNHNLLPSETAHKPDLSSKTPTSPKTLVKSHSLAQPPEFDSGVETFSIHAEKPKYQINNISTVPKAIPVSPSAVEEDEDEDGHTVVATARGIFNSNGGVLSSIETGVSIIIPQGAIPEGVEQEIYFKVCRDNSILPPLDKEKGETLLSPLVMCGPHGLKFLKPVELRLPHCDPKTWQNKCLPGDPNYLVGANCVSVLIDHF

UniProt Q9Y624, sequence (Q9Y624 28-299): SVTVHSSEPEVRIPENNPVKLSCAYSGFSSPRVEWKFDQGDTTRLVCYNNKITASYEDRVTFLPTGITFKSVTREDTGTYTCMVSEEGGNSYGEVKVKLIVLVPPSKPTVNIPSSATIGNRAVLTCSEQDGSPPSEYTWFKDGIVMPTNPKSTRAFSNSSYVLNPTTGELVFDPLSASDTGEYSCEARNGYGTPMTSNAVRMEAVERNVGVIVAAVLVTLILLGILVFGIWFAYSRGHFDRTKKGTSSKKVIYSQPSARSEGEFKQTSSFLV

In the case of “Zonula occludens scaffold protein ZO1 (from UniProt Q07157 1-1748) (natural protein)”, the fold enrichment in the dense ZO1 phase in test [1] is 2 fold.

In test [2], “G-actin-Alexa Fluor 647 (from UniProt P68135 1-377) (natural protein)” displayed a fold enrichment in the surface condensates of 5 fold.
